For experiment [1], the target named is HERC5 HECT domain (UniProt Q9UII4). The experiment is described as follows: SAXS.
Experiment [2] shares this target. The experiment is described as follows: SEC. On the technique in general: In gel filtration, larger molecules generally elute earlier.

Sequence of HERC5 HECT domain (Q9UII4 702-1024): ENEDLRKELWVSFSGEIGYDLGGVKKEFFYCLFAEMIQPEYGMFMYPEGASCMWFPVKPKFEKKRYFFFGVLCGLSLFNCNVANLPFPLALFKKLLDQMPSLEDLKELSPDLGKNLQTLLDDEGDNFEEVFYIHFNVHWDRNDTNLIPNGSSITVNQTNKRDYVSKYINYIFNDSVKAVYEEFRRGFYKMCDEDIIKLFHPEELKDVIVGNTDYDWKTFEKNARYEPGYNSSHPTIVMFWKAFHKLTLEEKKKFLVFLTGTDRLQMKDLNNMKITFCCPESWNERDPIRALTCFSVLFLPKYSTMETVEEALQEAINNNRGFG

As usually defined, the stoichiometry N is a count of units in the complex or per binding partner. With “HERC5 HECT domain (from UniProt Q9UII4 702-1024) (domain or fragment)”, the stoichiometry N with HERC5 HECT domain [1] and in the experiment with HERC5 HECT domain [2] was 3 each time.

The values are drawn from article doi:10.1101/2025.03.22.644726.
